The results in this text go back to patent US20210179728A1 (OSE IMMUNOTHERAPEUTICS, published 2021).

Usually EC50 stands for the concentration that produces a half-maximal response. Usually Kd stands for the constant that tells how readily two partners part at equilibrium. As a reminder, the koff is a measure of how fast the partners let go of each other. One may read the kon as the second-order rate constant of association. By IC50 is commonly meant the midpoint of a concentration-inhibition curve. One may read the EC50 (read off the curve) as the concentration at which the effect is half-maximal.

The target of test [1] is T1, recombinant hSIRPa (Sino Biologicals, reference 11612-H08H) (human, UniProt P78324 31-370).
T1 construct: also called SIRPa-His; human SIRPa-His; not shown: His tag (histidine tail)
T1 sequence (P78324 31-370 limits assumed): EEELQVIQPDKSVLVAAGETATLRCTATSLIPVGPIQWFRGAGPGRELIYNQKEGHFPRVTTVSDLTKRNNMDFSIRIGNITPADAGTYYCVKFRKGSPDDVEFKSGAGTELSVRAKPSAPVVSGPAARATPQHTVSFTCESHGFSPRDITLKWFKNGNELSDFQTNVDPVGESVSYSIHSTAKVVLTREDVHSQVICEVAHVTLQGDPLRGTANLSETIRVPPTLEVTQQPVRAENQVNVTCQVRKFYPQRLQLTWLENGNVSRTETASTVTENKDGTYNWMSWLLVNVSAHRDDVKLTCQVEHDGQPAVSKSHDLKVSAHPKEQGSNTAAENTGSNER
Nature of the test: ELISA on immobilized hSIRPa-His, anti-human IgG detection. A general note: In an ELISA, binding on a coated surface is turned into a signal by an enzyme label.

The target of test [2] is T2, recombinant hSIRPg-His (Sino Biologicals, reference 11828-H08H) (human, UniProt Q9P1W8 29-360).
T2 construct: also called human SIRPg-His; not shown: His tag
T2 sequence (Q9P1W8 29-360 limits assumed): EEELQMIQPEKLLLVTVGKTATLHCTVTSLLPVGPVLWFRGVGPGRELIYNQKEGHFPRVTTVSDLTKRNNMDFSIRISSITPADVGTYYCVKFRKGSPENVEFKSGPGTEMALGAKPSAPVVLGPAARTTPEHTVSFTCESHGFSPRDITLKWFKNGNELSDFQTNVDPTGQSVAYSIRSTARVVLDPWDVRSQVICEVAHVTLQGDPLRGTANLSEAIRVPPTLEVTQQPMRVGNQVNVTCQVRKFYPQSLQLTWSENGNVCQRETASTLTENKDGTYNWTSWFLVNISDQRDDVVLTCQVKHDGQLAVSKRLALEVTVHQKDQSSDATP
The test is described as follows: BLI (Blitz); SIRPg-His on Ni-NTA biosensor, antibody at 10 ug/ml or 20 ug/ml (Example 9) [B, table A]. How it is done:
FIG. 8. (A) Affinity analysis by Blitz of anti-SIRP antibodies on human SIRPg recombinant protein. SIRPg-His recombinant protein was immobilized onto a NINTA biosensor and the indicated antibodies were added at 10 μg/ml. […] (B) Binding analysis by ELISA assay of anti-SIRP antibodies on SIRPg (human SIRPg-His coating and anti-human kappa detection).
(§1) Method: This method was performed with a Blitz (Forte Bio; USA; reference C22-2 No 61010-1). Recombinant hSIRPg-His (Sino Biologicals, Beijing, China; reference 11828-H08H) was immobilized at 10 μg/ml by histidine tail into a Ni-NTA biosensor (Forte Bio; USA; reference 18-0029) for 30 seconds. Then, an anti-SIRPa antibody was associated at 20 μg/mL for 120 seconds. The dissociation of anti-SIRPa antibody was made in kinetics buffer for 120 seconds. Analysis of data was made with the Blitz pro 1.2 software, which calculated association constant (ka) and dissociation constant (kd) and determined the affinity constant KD […].

Test [3] deals with T3, recombinant hSIRPb-His (Antibodies-online, reference ABIN3077231) (human, UniProt Q5TFQ8 30-371).
T3 construct: also called SIRPb-His (Blitz); not shown: His tag
T3 sequence (Q5TFQ8 30-371): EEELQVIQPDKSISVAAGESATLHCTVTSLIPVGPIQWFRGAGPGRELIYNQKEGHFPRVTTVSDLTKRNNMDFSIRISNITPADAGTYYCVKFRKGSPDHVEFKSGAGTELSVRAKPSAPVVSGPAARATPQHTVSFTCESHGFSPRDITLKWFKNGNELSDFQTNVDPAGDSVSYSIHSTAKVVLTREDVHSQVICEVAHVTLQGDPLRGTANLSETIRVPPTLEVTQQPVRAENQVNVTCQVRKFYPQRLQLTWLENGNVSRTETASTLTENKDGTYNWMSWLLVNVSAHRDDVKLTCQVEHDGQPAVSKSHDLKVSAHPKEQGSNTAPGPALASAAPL
The test is described as follows: BLI (Blitz); SIRPb-His on Ni-NTA biosensor, antibody at 20 ug/ml [B, table A].

In test [4] the target is T1, recombinant hSIRPa (Sino Biologicals, …). Nature of the test: SPR (Biacore); SIRPa-His immobilized on CM5 chip, antibody injected. The method, boiled down:
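His-tagged recombinant human SIRPa was coupled to a CM5 chip at 5 μg/ml (500 RU). Anti-SIRP antibodies were injected at several concentrations at 40 μl/min on a BIAcore 3000.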
Background: Surface plasmon resonance follows binding to a sensor surface in real time, without labels.

Test [5] concerns the target T2, recombinant hSIRPg-His (Sino …). The test is described as follows: Blitz, SIRPg-His on Ni-NTA biosensor. How it is done: as §1
Test [6] has as its target T1, recombinant hSIRPa (Sino Biologicals, …). The test is described as follows: ELISA on immobilized hSIRPa-His, anti-human IgG detection, first experiment; first experiment. The protocol:
Method: The binding activity of the anti-SIRPa antibodies was assessed by ELISA.

The target is the same in test [7]. The test is described as follows: competition ELISA on immobilized SIRPa-His; competitor biotinylated CD47-Fc at 6 ug/ml, streptavidin-peroxidase [second experiment table]. How it is done: (§2) Method: For competitive ELISA assay, recombinant hSIRPa (Sino Biologicals, Beijing, China; reference 11612-H08H) was immobilized on plastic at 0.5 μg/ml in carbonate buffer (pH9.2).

A further test deals with T4, CD28Fc (human, UniProt P10747 19-152, limits assumed).
T4 construct: not shown: Fc; not specified
The test is described as follows: ELISA: modified antibody on immobilized SIRPa-His, CD28Fc added and detected with mouse anti-human CD28. An excerpt: FIG. 24. Ligand binding assay with the different modified anti-SIRPa antibodies by ELISA.

In test [8] the target is T1, recombinant hSIRPa (Sino Biologicals, …). Nature of the test: ELISA on immobilized SIRPa-His, peroxidase anti-human IgG, DO 450nm [panel ICOSL]. The protocol: Method: For ELISA assay, recombinant hSIRPa (Sino Biologicals, Beijing, China; reference 11612-H08H) was immobilized on plastic at 0.5 μg/ml in carbonate buffer (pH9.2) and different modified anti-SIRPa antibodies were added to measure binding to SIRPa.

For test [9] the target is unchanged. The test is described as follows: BLI (Blitz); SIRPa-His on Ni-NTA biosensor, antibody at 20 ug/ml, no SP-D [B, table A].
Test [10] has the same target. Nature of the test: competition ELISA on immobilized SIRPa; competitor CD47Fc at 0.04 ug/ml, anti-human Fc detection. The protocol: as §2
For test [11] the target is unchanged. The test is described as follows: BLI (Blitz); SIRPa-His on Ni-NTA biosensor pre-incubated with SP-D at 100 ug/ml, then antibody at 20 ug/ml [B, table A]. The protocol:
FIG. 6. […] SIRPa-His recombinant protein was immobilized onto a NINTA biosensor at 10 μg/ml and the anti-SIRPa antibody was added at 20 μg/ml (saturating concentration).
In a first step, Sirp-a (His) recombinant protein (Sino Biologicals, Beijing, China; reference 11612-H08H) was immobilized at 10 μg/ml by histidine tail into a Ni-NTA biosensor (Forte Bio; USA; reference 18-0029) for 30 seconds. […] Then, anti-SIRPa antibodies were associated at 20 μg/mL (saturating concentration) for 120 seconds. The dissociation of anti-SIRPa antibody was made in kinetics buffer for 120 seconds. Analysis data was made with the Blitz pro 1.2 software, which calculated association constant (ka) and dissociation constant (kd) and determined the affinity constant KD […].

B1: Kwar23 (antibody, V domains shown)
VH: EVQLQQSGAELVKPGASVKLSCTASGFNIKDYYIHWVQQRTEQGLEWIGRIDPEDGETKYAPKFQDKATITADTSSNTAYLHLSSLTSEDTAVYYCARWGAYWGQGTLVTVSS
VL: QIVLTQSPAIMSASPGEKVTLTCSASSSVSSSYLYWYQQKPGSSPKLWIYSTSNLASGVPARFSGSGSGTSYSLTISSMEAEDAASYFCHQWSSYPRTFGAGTKLELK
For the molecule B1, in test [1], the EC50 is 3.3 ng/mL. Also, the Kd in test [2] was 2.14 nM; in test [3], 2.77 nM; in test [4], 0.367 nM. For the same molecule, the koff in [2] worked out at 0.000765 s⁻¹; in [3] it was 0.000794 s⁻¹; in [4], 8.95e-05 s⁻¹. Besides, the association rate constant (kon) in test [2] is 357000 M⁻¹ s⁻¹; in test [3], 286000 M⁻¹ s⁻¹; in test [4], 244000 M⁻¹ s⁻¹.

B2: HFLB (antibody, human IgG4 S228P, kappa, V domains shown)
VH: EVQLVQSGAEVKKPGESLRISCKASGYSFTSYWVHWVRQMPGKGLEWMGNIDPSDSDTHYSPSFQGHVTLSVDKSISTAYLQLSSLKASDTAMYYCVRGGTGTMAYFAYWGQGTLVTVSS
VL: DVVMTQSPLSLPVTLGQPASISCRSSQSLVHSYGNTYLYWFQQRPGQSPRLLIYRVSNRFSGVPDRFSGSGSGTDFTLKISRVEAEDVGVYYCFQGTHVPYTFGGGTKVEIKR
notes: humanized 18D5 variant
B2: the values for the koff in test [2], in test [3] and in [4] were 0.0123 s⁻¹, 0.00174 s⁻¹ and 0.000249 s⁻¹, respectively. Also, the kon was 119000 M⁻¹ s⁻¹ in test [2], 66900 M⁻¹ s⁻¹ in [3] and 791000 M⁻¹ s⁻¹ in [4]. Also, the Kd in [5] amounted to 104 nM; in test [3], 26 nM; in [4], 0.315 nM. Also, the EC50 in test [6] is 4 ng/mL. In addition, the IC50 in test [7] amounted to 183 ng/mL.

B3: modified anti-SIRPa HEFLB antibody with ECD of ICOSL on the heavy chain (antibody, human IgG4 S228P, kappa)
heavy: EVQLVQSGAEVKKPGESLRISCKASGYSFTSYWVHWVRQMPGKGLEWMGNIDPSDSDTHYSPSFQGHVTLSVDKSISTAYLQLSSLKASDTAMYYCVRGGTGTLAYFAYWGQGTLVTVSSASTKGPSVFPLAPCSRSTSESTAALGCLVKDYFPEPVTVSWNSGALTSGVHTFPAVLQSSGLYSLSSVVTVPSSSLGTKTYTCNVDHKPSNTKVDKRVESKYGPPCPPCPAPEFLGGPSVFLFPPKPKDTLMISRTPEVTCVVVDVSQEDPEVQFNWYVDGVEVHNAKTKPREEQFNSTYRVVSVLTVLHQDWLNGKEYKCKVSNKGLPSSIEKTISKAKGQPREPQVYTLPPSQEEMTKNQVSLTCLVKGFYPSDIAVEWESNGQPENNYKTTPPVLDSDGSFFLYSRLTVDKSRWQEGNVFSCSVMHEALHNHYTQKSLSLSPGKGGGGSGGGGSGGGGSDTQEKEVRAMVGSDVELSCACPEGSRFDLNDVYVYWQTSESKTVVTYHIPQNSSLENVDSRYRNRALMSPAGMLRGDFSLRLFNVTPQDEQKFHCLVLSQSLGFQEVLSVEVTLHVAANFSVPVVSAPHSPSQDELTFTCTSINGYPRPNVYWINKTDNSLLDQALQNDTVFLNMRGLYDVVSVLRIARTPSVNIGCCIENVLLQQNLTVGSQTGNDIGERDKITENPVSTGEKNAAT
light: DVVMTQSPLSLPVTLGQPASISCRSSQSLVHSYGNTYLYWFQQRPGQSPRLLIYRVSNRFSGVPDRFSGSGSGTDFTLKISRVEAEDVGVYYCFQGTHVPYTFGGGTKVEIKRTVAAPSVFIFPPSDEQLKSGTASVVCLLNNFYPREAKVQWKVDNALQSGNSQESVTEQDSKDSTYSLSSTLTLSKADYEKHKVYACEVTHQGLSSPVTKSFNRGEC
notes: as m25, ECD of ICOSL; also called VHprot+VL (ICOSL); HEF-ICOSL + LB
As for B3, in the test with CD28Fc, the binding result was “binds”. Besides, in [8], the “EC50 (read off the curve)” value was ~8 ng/mL.

B4: mouse antibody 18D5 (antibody, mouse IgG2b, kappa)
heavy: QVQLQQPGAELVRPGSSVKLSCKASGYTFTSYWVHWVKQRPIQGLEWIGNIDPSDSDTHYNQKFKDKASLTVDKSSSTAYMQLSSLTFEDSAVYYCVRGGTGTMAWFAYWGQGTLVTVSAAKTTPPSVYPLAPGCGDTTGSSVTLGCLVKGYFPESVTVTWNSGSLSSSVHTFPALLQSGLYTMSSSVTVPSSTWPSQTVTCSVAHPASSTTVDKKLEPSGPISTINPCPPCKECHKCPAPNLEGGPSVFIFPPNIKDVLMISLTPKVTCVVVDVSEDDPDVQISWFVNNVEVHTAQTQTHREDYNSTIRVVSTLPIQHQDWMSGKEFKCKVNNKDLPSPIERTISKIKGLVRAPQVYILPPPAEQLSRKDVSLTCLVVGFNPGDISVEWTSNGHTEENYKDTAPVLDSDGSYFIYSKLNMKTSKWEKTDSFSCNVRHEGLKNYYLKKTISRSPGK
light: DVVMTQTPLSLPVSLGDQASISCRSSQSLVHSYGNTYLYWYLQKPGQSPKLLIYRVSNRFSGVPDRFSGSGSGTDFTLKISRVEAEDLGVYFCFQGTHVPYTFGSGTKLEIKRADAAPTVSIFPPSSEQLTSGGASVVCFLNNFYPKDINVKWKIDGSERQNGVLNSWTDQDSKDSTYSMSSTLTLTKDEYERHNSYTCEATHKTSTSPIVKSFNRNEC
notes: mouse monoclonal anti-human SIRPa antibody; also called m18D5; m18D5 clone
Take B4: in test [9], the dissociation constant (Kd) came out at 111 nM, the koff came out at 0.00176 s⁻¹ and the kon worked out at 15800 M⁻¹ s⁻¹. For the same molecule, the “IC50 (read off the curve)” value in [10] is ~500 ng/mL. Moreover, in [11], the Kd was 28.6 nM, the koff was 0.0109 s⁻¹ and the kon came to 380000 M⁻¹ s⁻¹. In test [4], the Kd came to 0.193 nM, the koff came out at 1.2e-05 s⁻¹ and the kon was 62300 M⁻¹ s⁻¹.
